# Assay results reported in publication PMC8368996 (2021).
# Where two headings read alike, the source gives them in different places. Ends that are not written are not given here. Oregon Green 488 maleimide = Oregon Green 488 maleimide fluorescent label attached to the N-terminal cysteine
# B1: NEDD4L WW2 domain (domain or fragment)
# chain: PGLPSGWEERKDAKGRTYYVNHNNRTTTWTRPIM
# B2: NEDD4L WW4 domain (domain or fragment)
# chain: GPLPPGWEERIHLDGRTFYIDHNSKITQWEDPRL
# B3: NEDD4L WW3 domain (domain or fragment)
# chain: KVTQSFLPPGWEMRIAPNGRPFFIDHNTKTTTWEDPRLKFPVHMRSK
# B4: NEDD4L WW1 domain (domain or fragment)
# chain: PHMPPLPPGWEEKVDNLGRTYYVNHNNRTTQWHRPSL
# Columns and labels:
# Assay in all cases: FP
# NEDD4L WW3 domain [1] = biological target: B3
# NEDD4L WW4 domain = biological target: B2
# NEDD4L WW1 domain = biological target: B4
# NEDD4L WW2 domain = biological target: B1
# PPxYc [2] = biological target: PPxYc
# Target sequence in this assay (Q96PU5 385-418): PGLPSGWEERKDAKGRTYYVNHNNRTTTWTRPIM
# PPxYc [3] = biological target: PPxYc; remark: listed apart in the source
# PPxYc [4] = biological target: PPxYc; remark: listed apart in the source
# NEDD4L WW3 domain [5] = biological target: B3; remark: listed apart in the source
# PPxYc [6] = biological target: PPxYc; remark: listed apart in the source
# Target sequence in this assay (Q96PU5 other isoform, or with tags, fused parts or gaps): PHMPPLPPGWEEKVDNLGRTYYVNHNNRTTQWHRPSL
# Chain of NEDD4L WW2 domain (Q96PU5 385-418): as the sequence (Q96PU5 385-418) above
# Chain of NEDD4L WW1 domain (chain, as listed by the source): as the sequence (Q96PU5 other isoform, or with tags, fused parts or gaps) above
Binder,Kd (NEDD4L WW3 domain [1]) [µM],Kd (NEDD4L WW4 domain) [µM],Kd (NEDD4L WW1 domain) [µM],Kd (NEDD4L WW2 domain) [µM],further results
C(Oregon Green 488 maleimide)MEHRGPLPEYPFKGM [AMOT PPxY2 P239L mutant peptide],78,,,,
"C(Oregon Green 488 maleimide)MQNNEELPTYEEAKV [AMOT PPxY1 peptide (residues 100-114), Oregon Green 488-labelled]",6.3,60,180,34,
C(Oregon Green 488 maleimide)MQNNEEPPTYEEAKV [AMOT PPxY1 L106P mutant peptide],6.7,,,,
B1,,,,,Kd (PPxYc [2]): > 800 µM
B2,,,,,Kd (PPxYc [3]): > 400 µM
B3,,,,,Kd (PPxYc [4]): > 250 µM
"C(Oregon Green 488 maleimide)MEHRGPPPEYPFKGM [AMOT PPxY2 peptide (residues 233-247), Oregon Green 488-labelled]",,210,49,30,Kd (NEDD4L WW3 domain [5]): 28 µM
"C(Oregon Green 488 maleimide)LMRYQHPPEYGAARP [AMOT PPxY3 peptide (residues 278-292), Oregon Green 488-labelled]",,> 400,> 400,280,Kd (NEDD4L WW3 domain [5]): 100 µM
B4,,,,,Kd (PPxYc [6]): > 400 µM
